In US20210380649A1 (BIO TECHNE, published 2021):

Experiments:
[1] = biological target: T1, mouse Wnt1 (mouse, UniProt P04426 28-370); assay: cell-based or functional assay
T1 sequence (looked up): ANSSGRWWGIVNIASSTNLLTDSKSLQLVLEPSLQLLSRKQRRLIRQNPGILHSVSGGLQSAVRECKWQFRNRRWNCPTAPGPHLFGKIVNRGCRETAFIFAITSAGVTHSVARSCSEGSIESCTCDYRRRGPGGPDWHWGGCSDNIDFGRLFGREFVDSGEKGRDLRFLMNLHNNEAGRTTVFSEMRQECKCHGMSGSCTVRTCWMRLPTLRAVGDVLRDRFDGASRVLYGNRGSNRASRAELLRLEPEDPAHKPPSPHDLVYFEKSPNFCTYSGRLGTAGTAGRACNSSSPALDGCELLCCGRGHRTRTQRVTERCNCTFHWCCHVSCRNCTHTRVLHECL

[2] = biological target: T1, mouse Wnt1; assay: SDS-PAGE with Coomassie Blue of the gel-filtration purified complex, densitometry, FIG. 4F
Text: FIG. 4A. Conditioned media from CHO cells co-expressing msFRP1 and mWnt-1 were loaded onto SP Sepharose column, and bound proteins were eluted with a linear gradient of high salt buffer. The distinct late elution peak was the position that sFRP was usually eluted. FIG. 4B. Fractions collected from SP elution were loaded onto 15 percent (%) SDS-PAGE and stained with silver. The 37 kDa bands represent sFRP1. FIG. 4C. The same fractions of FIG. 4B were subjected to Western blot probed with antibody against mWnt-1. mWnt-1 was detected as a ˜52 kDa band that is present in the same fractions where sFRP1 was detected. FIG. 4D. Pool from a SP Sepharose column was loaded and eluted from a gel filtration (Superdex 200) column. The earlier-eluted peak contained the sFRP1/Wnt-1 complex, while the later-eluted peak contained the free sFRP. FIG. 4E. Fractions collected from gel filtration elution were loaded onto a 15% SDS-PAGE gel and stained with Coomassie blue. The lower band (37 kDa) represents sFRP1 and the upper band (52 kDa) represents Wnt-1. FIG. 4F. sFRP1/Wnt-1 complex purified from a gel filtration column was loaded onto a 15% SDS-PAGE gel and stained with Coomassie blue. Two bands, at 37 kDa and 52 kDa, were observed, with a roughly 1:1 molar ratio.

[3] = biological target: T2, recombinant mouse (rm) Wnt3a biotinylated protein (mouse, UniProt P27467 19-352, biotinylated (sites not given)); assay: ELISA: in-solution binding with biotinylated mouse Wnt3a (100 ng/mL), capture on streptavidin plate, detection with goat anti-sFRP1 antibody, FIG. 8
T2 construct: also called biotinylated mouse Wnt3a protein
Protocol: (§1) Purified recombinant mouse sFRP proteins were tested in ELISA binding assays with a biotinylated mouse Wnt3a protein. […] His tagged-mouse sFRP2 and His tagged-mouse sFRP3 were detected with a mouse anti-His antibody. HA tagged-mouse sFRP5 was detected with a mouse anti-HA antibody.
(§2) A 96-well tissue culture plate was blocked with 1% BSA in PBS and used as an in-solution binding plate. 120 μL of total volume containing 100 ng/mL recombinant mouse (rm) Wnt3a biotinylated protein and sFRPs (1:3 serial dilution) were incubated overnight at 4° C. in the binding plate. Then 100 μL of binding solution was transferred to streptavidin coated 96-well ELISA plate, incubating overnight at 4° C. followed by the HRP detection. The mouse sFRP1 was detected with a goat anti-mouse sFRP1 antibody, mouse sFRP2 and mouse sFRP3 were His-tagged and were detected with a mouse anti-His antibody, mouse sFRP4 was detected with a sheep anti-mouse sFRP4 antibody, and the HA-tagged mouse sFRP5 was detected with a mouse […]. […] secondary antibodies were used to detect the primary antibodies followed by colorimetric readouts.

[4] = biological target: T2, recombinant mouse (rm) Wnt3a …; assay: ELISA: in-solution binding with biotinylated mouse Wnt3a (100 ng/mL), capture on streptavidin plate, detection with mouse anti-His antibody, FIG. 8
Protocol: as §1, §2

[5] = biological target: T2, recombinant mouse (rm) Wnt3a …; assay: ELISA: in-solution binding with biotinylated mouse Wnt3a (100 ng/mL), capture on streptavidin plate, detection with mouse anti-HA antibody, FIG. 8
Protocol: as §1, §2

T2 sequence (P27467 19-352 limits assumed): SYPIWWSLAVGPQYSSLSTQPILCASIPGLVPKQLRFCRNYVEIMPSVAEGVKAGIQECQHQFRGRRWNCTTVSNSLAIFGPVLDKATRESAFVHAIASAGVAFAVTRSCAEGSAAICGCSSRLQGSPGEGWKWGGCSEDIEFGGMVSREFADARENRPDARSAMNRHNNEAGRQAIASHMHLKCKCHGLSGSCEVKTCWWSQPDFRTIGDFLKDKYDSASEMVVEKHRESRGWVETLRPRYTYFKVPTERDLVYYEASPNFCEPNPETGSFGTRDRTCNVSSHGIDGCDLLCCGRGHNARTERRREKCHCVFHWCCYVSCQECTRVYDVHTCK

B1: mouse sFRP1 (other, UniProt Q8C4U3 32-314, looked up)
chain: SEYDYVSFQSDIGSYQSGRFYTKPPQCVDIPVDLRLCHNVGYKKMVLPNLLEHETMAEVKQQASSWVPLLNKNCHMGTQVFLCSLFAPVCLDRPIYPCRWLCEAVRDSCEPVMQFFGFYWPEMLKCDKFPEGDVCIAMTPPNTTEASKPQGTTVCPPCDNELKSEAIIEHLCASEFALRMKIKEVKKENGDKKIVPKKKKPLKLGPIKKKELKRLVLFLKNGADCPCHQLDNLSHNFLIMGRKVKSQYLLTAIHKWDKKNKEFKNFMKRMKNHECPTFQSVFK
notes: Secreted protein; also called msFRP1; msFRP-1
Question: B1 was tested. Which “fold induction above background, HEK293 TCF9-SEAP hFz4/hLRP5 Wnt Reporter assay, conditioned media of CHO cells co-expressing mWnt1 and msFRP1” value [1] did it give?
Answer: 22 fold

Question: What about the “molar ratio of the two bands in the purified complex” value [2] of the same binder?
Answer: ~1 molar ratio (sFRP1:Wnt-1)

Question: Does B1 bind [3]?
Answer: binds

B2: mouse sFRP1-His (other, UniProt Q8C4U3 32-314, looked up, not shown: small tags and cut ends)
chain: B1 chain
Question: Which “fold induction above background, HEK293 TCF9-SEAP hFz4/hLRP5 Wnt Reporter assay, conditioned media of CHO cells co-expressing mWnt1 and msFRP1-His” value [1] does the source give for B2 here?
Answer: 17 fold

B3: His tagged-mouse sFRP2 (other, UniProt P97299 25-295, looked up)
chain: LFLFGQPDFSYKRSNCKPIPANLQLCHGIEYQNMRLPNLLGHETMKEVLEQAGAWIPLVMKQCHPDTKKFLCSLFAPVCLDDLDETIQPCHSLCVQVKDRCAPVMSAFGFPWPDMLECDRFPQDNDLCIPLASSDHLLPATEEAPKVCEACKTKNEDDNDIMETLCKNDFALKIKVKEITYINRDTKIILETKSKTIYKLNGVSERDLKKSVLWLKDSLQCTCEEMNDINAPYLVMGQKQGGELVITSVKRWQKGQREFKRISRSIRKLQC
notes: also called msFRP2; not shown: His tag
Question: Does B3 bind [4]?
Answer: binds

B4: HA tagged-mouse sFRP5 (other, UniProt Q9WU66 22-314, looked up)
chain: APTRGQEYDYYGWQAEPLHGRSYSKPPQCLDIPADLPLCHTVGYKRMRLPNLLEHESLAEVKQQASSWLPLLAKRCHSDTQVFLCSLFAPVCLDRPIYPCRSLCEAARAGCAPLMEAYGFPWPEMLHCHKFPLDNDLCIAVQFGHLPATAPPVTKICAQCEMEHSADGLMEQMCSSDFVVKMRIKEIKIDNGDRKLIGAQKKKKLLKAGPLKRKDTKKLVLHMKNGASCPCPQLDNLTGSFLVMGRKVEGQLLLTAVYRWDKKNKEMKFAVKFMFSYPCSLYYPFFYGAAEPH
notes: not shown: HA tag
Question: Does B4 bind [5]?
Answer: binds
